Reference: IntAct's records for PubMed 20571511

B1: Telomere length regulation protein ELG1 (Saccharomyces cerevisiae), Q12050 (parent)
chain: MKRHVSLSDILTGNKRKVRRQDALQITIDDENDTESGTFDARTAKHDDSSVIFLNHSVVKPIEAVSTNHKSAKEFLMTKRTKEKCDDDDDDLIVISDKSPKSETNCSKIALSQEHEDDISIISTSRIKSSLLNERASKIKNFLKHETTDTFKRLNSISKLNEIEPPLPLHQSIFPVGDKELSDRSVDIPLPFRTIPPLNHNFLPSDYESLKDKNSASCIPVRYQAPVLLGTNIKRNTTLTWPQLFKPVTLKQVLIEPKLKLRIKNWIETSFHTLEKPTLRNRLLNRINPNKQQGSGDELANFIVPDLEEDENLRPDFYRNGEANSSLSEFVPLMILHGNSIGKKTLIQTIMREIAGDDNSYQIYEVNSNMNRSKKDLLDILLDFTTTHYVKDSSKRKSDYGLVLFNDVDVLFKEHDRGYWAMISKLCEFSRRPLVLTCKDLSLVPSELIALASEQNSLFHTKKISTSTVYAFLTKYLKSLEIEVCDDWLRDVVKQNNADIRKCLMHLQFWCVDTEADLISSKNRLPVLTSTLGSSVKDISQLTDLLSINDVIGQATLNRSMVRQEIDSTTMTPEKVNTFQDQNLDDEMKLKFDYVIDYKLHLNDPNRQPLLPFELNIYQHIQEQLEARYSYVREANHRLDNEYLVNRFKKMTESTLNFLASRIPKYDHLQSARRTRNSKKISDILNQFKGIYNDETLNENAEIDLLSATTQQIKAEINPFVFEIAKSDANVKNENKQIFELHSENVSERRYKDLVYQLSQEGVLKNVWFNADPSIVVRKWEHLHSGFSKNK
B2: Proliferating cell nuclear antigen (Saccharomyces cerevisiae), P15873 (parent)
chain: MLEAKFEEASLFKRIIDGFKDCVQLVNFQCKEDGIIAQAVDDSRVLLVSLEIGVEAFQEYRCDHPVTLGMDLTSLSKILRCGNNTDTLTLIADNTPDSIILLFEDTKKDRIAEYSLKLMDIDADFLKIEELQYDSTLSLPSSEFSKIVRDLSQLSDSINIMITKETIKFVADGDIGSGSVIIKPFVDMEHPETSIKLEMDQPVDLTFGAKYLLDIIKGSSLSDRVGIRLSSEAPALFQFDLKSGFLQFFLAPKFNDEE
partner: B1 chain

Variants of: B1
Settings: with pcna_yeast POL30, P15873

Variant | effect of a mutation on the interaction
I121A | disrupting interaction
I28A | disrupting interaction

Continued, values first:

effect of a mutation on the interaction | Variant
disrupting interaction | I122A
disrupting interaction | I93K

Variants of: B1
Settings: with smt3_yeast SMT3, Q12306
Chain of smt3_yeast SMT3, Q12306 (Q12306 whole entry): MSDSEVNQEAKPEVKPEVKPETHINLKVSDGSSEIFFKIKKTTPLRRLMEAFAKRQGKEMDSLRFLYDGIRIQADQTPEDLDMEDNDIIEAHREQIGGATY

Variant | effect of a mutation on the interaction
I121A | decreasing interaction
I28A | decreasing interaction

Further lines, results first:

effect of a mutation on the interaction | Variant
decreasing interaction | I122A
decreasing interaction | I93K

Variants of: B1
Settings: with smt3_yeast SMT3, Q12306
Remark: another data set of the same source

Variant | effect of a mutation on the interaction
I121A | disrupting interaction
I28A | disrupting interaction

Second part, the variant after the results:

effect of a mutation on the interaction | Variant
disrupting interaction | I122A
disrupting interaction | I93K

Variants of: B1
Settings: with pcna_yeast POL30, P15873
Remark: another data set of the same source

effect of a mutation on the interaction | Variant
decreasing interaction | V59A

Variants of: B1
Settings: with pcna_yeast POL30, P15873
Remark: another data set of the same source

effect of a mutation on the interaction | Variant
decreasing interaction | V58A
decreasing interaction | S57A

Variants of: B2
Settings: with elg1_yeast ELG1, Q12050

effect of a mutation on the interaction | Variant
decreasing interaction | MLEAKFEEASLFKRIIDGFKDCVQLVNFQCKEDGIIAQAVDDSRVLLVSLEIGVEAFQEYRCDHPVTLGMDLTSLSKILRCGNNTDTLTLIADNTPDSIILLFEDTKKDRIAEYSLKLMDIDADFLKIEELQYDSTLSLPSSEFSKIVRDLSQLSDSINIMITRETIKFVADGDIGSGSVIIKPFVDMEHPETSIKLEMDQPVDLTFGAKYLLDIIKGSSLSDRVGIRLSSEAPALFQFDLKSGFLQFFLAPKFNDEE [K164R]
